This is an account of results in patent publication US20240076332A1.

The test concerns the target cell surface bound heterodimeric receptor protein comprising a tyrosine kinase FGFR1c and a beta-Klotho protein (UniProt P11362). Briefly: cell-based or functional assay.
Chain of UniProt P11362 (P11362 22-822, chain 1 of 2): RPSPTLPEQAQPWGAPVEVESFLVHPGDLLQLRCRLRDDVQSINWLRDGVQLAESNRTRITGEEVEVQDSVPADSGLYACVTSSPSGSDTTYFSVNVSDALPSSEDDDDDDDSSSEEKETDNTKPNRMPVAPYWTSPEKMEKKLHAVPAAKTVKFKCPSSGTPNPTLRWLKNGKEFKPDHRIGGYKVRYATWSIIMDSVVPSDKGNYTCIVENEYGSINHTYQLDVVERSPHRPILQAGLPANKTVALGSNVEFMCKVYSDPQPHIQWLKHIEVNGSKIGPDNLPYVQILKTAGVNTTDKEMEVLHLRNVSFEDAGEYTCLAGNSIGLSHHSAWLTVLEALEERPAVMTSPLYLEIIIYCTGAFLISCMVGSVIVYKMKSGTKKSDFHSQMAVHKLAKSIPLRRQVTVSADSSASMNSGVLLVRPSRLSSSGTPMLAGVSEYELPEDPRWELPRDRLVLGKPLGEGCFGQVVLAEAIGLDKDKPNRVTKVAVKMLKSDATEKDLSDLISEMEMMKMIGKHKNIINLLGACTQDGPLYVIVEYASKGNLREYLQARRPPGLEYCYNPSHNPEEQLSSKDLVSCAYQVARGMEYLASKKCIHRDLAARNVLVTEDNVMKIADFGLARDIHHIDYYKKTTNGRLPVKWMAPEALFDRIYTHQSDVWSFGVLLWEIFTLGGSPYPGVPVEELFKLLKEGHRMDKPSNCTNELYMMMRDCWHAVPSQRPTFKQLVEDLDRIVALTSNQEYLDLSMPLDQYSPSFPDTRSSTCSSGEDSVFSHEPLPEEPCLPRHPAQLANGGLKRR
Chain of UniProt P11362 (Q86Z14 whole entry, chain 2 of 2, further chain): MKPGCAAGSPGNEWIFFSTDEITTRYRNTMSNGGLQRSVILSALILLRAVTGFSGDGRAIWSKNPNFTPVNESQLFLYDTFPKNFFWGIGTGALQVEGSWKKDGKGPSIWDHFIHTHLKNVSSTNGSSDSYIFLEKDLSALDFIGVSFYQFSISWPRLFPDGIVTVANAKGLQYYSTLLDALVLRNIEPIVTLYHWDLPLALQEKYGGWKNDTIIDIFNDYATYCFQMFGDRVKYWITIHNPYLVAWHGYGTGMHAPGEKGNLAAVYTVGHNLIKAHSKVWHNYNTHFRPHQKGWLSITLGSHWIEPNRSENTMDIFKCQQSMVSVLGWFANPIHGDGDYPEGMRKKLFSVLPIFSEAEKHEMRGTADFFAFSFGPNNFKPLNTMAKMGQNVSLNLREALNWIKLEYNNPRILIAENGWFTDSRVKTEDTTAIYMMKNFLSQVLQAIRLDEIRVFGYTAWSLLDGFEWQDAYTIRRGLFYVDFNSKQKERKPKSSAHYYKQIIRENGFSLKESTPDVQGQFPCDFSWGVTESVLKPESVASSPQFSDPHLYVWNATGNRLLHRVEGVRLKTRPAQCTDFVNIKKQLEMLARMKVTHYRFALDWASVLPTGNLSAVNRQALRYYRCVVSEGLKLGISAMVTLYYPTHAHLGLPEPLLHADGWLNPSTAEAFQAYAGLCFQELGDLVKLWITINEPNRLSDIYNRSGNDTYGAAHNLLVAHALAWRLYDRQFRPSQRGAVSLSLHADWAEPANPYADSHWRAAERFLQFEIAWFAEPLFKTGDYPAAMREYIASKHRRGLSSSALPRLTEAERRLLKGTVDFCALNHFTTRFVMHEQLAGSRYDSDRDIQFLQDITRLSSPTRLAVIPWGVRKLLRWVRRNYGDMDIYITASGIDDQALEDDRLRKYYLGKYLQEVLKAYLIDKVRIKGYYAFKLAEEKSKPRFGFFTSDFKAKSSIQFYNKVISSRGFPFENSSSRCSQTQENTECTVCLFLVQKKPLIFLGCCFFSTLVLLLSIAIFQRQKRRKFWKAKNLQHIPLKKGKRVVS

“human FGF21 (from UniProt Q9NSA1 29-209) (ligand)” returned an EC50 of firefly luciferase reporter-gene response (Gal4-Elk-1), HEK293 cells with FGFR1c and optimized synthetic beta-Klotho gene, treated with increasing concentrations of human FGF21 of 0.003 mg/L; an EC50 of firefly luciferase reporter-gene response, HEK293 cells with FGFR1c and native beta-Klotho gene, freeze, thaw and use format of 0.024 mg/L; an EC50 of firefly luciferase reporter-gene response, HEK293 cells with FGFR1c and optimized synthetic beta-Klotho gene, freeze, thaw and use format of 0.007 mg/L; an EC50 of firefly luciferase reporter-gene response, Jurkat cells transfected with the native beta-Klotho gene (Table 1) of 0.172 mg/L. This substance also gave an EC50 of firefly luciferase reporter-gene response, Jurkat cells with FGFR1c and native beta-Klotho gene, freeze, thaw and use format of 0.17 mg/L.
